The results in this text go back to a protein production outcome set (Wang et al. 2014).

This data set can be described thus: label from the status in PepcDB records.

“MTATASTVLPARALLLDMDGTLVNSDAAVDRVWRRWADRHGLDGDEVMKVVHGRQGYASMALLLPDRPMEHNHADNARMLAEETADTEGVVAIPGAAEFLASLRGLPHALVTSADVALSTARMAAAGLAQPDVRVTAESVGASKPDPEGFLKGAAELGIAPADCVVFEDSGAGIAAGRAAGMRVVGVGPRAGFHGPDVVVEDLTRVRVEADADGGLRLHIG”: the protein production entry is reported as “failed”.

As to “MTATEPTEKILPSPDYVQSLARGLAVIRCFDHRNQRRTLSDVARATDLTRATARRFLLTLVELGYVATDGSAFWLTPRVLELGYSYLSSLSLPEVAQPHLEKLSHKVHESSSVSILDGADIVYVARVPVSRIMTVGITIGTRLPAYATSMGRVLLAGLPDDELDAYLEKLDIQRLTERTITARDELKAAILAVRADGICVLDQELEAGLRSMAAPIRGASGLTVAAVNISTPAARYSLEDLHSDLIPSLRVTATDIEQDLATVNR”, the protein production entry is “not failed”.

In the case of “MTATQITGVVLAAGRSNRLGTPKQLLPYRDTTVLGATLDVARQAGFDQLILTLGGAASAVRAAMALDGTDVVVVEDVERGCAASLRVALARVHPRATGIVLMLGDQPQVAPATLRRIIDVGPATEIMVCRYADGVGHPFWFSRTVFGELARLHGDKGVWKLVHSGRHPVRELAVDGCVPLDVDTWDDYRRLLESVPSLEHHHHHH”, the protein production result is “failed”. The entry for “MTDACCLKGNEDKMVPRFGHGTWIGKAFNDTPEMLHERSLRQEKRLERANELMNDDSLQKLETAAMARSRSVDSAPLGNYTIWKNEYRRGKSFEDMLRLMQDQIIMARVYSGLAKFTNNLALHQEIETQLMKLAWEEESTDIDQEQRVLDSIRDMGQILARAHEQLYECKLVTNKLRAMLQTVEDELENEQTYITFLTQLASKALPDAIHCLTMRLNLEYHLLPLPMRNFPRRENLENPKLYHYALFSDNVLAASVVVNSTVMNAQDPSRHVFHLVTDKLNFGAMSMWFLLNPPGEATIHVQRFEDFTWLNSSYSPVLSQLESAAMKKFYFKTARSESVESGSENLKYRYPKYMSMLNHLRFYIPRIFPKLEKILFVDDDVVVQKDLTPLWSIDLKGKVNENFDPKFCGWAYGMNIFDLKEWKKNNITETYHFWQNLNENRTLWKLGTLPPGLITFYNLTQPLQRKWHLLGLGYDKGIDVKKIERSAVIHYNGHMKPWTEMGISKYQPYWTKYTNFDHPYIFTCRLFE” is “failed”. Consider “MTDARPHLRLRLARPEDMPALSALMDRAIGELLQDFLPPEGVKASYEIMGLDTQLIADGTYFVVEDGAAIAGCGGWSRRATLFGGDHSAGRDAALLDPKTDAARVRAMYTHPDHTRKGVGRIILDACEAAARAEGFSSVEMAATMGGVPLYRACGYHDIEPFEAVTSTGYRVPLIRMGKAL”, for which the protein production entry was “failed”. On to “MTDIHHQPEQTDDELYRHFFSRGGSLRLLADIQGEDLESLYGYAKQLFDGGEIAAARNVYQLLSTLDHWNFDYLLALGLCHQRLGAHNEAVVCFGRAGLIKVDDPRAAFYAGISYRLDGNAEYASKAFKAAINWCGEQIDYQAIKASAVDMLALQQEEVPC”, for which the protein production result was “failed”. Take “MTDKFLQFPVIDPIIFSIGPVSLRWYGTMYLIGFLAAMFMANKAADRSNGLWTRDQVSDVLFYGFLGVILGGRVGYVLFYQFEYFLSDPLYLFEIWQGGMSFHGGLLGVILAVFIFARKTNKSFLAVGDFVVPLVPIGLGMGRLGNFINAELWGRQTDVSWAMVFPTDPLQVPRHPSQLYEFALEGVVLFAILYIISRKTRSLGLASGTFLIGYGVFRSIVEFFREPDAHLGLYFSFISKGQILSIPMILAGILIIYLGYLSQQKSAIAQGDKALAAGGKSGKKTVKGNN”: the protein production result is on record as “failed”.

On to “MTDLPPPFTTLAAAHRVDAVIDHSEFLAFAERADSPEEALAHLAALRTRYPDATHHCWAYRIGAAYRFGDDGEPGGTAGAPILRAIEGQGVDHVMVVVVRYYGGVKLGTGGLVRAYGGVAAECLRTAPRLDVRPRRTLQVSVPFDHLSGLYHLLGTWDAARGEETYTGAGVTLPVEVYPEDVEAFQAALRDATRGSAVVEEEE”, for which the protein production entry was “not failed”.

Turning to “MTDLWLTLVNSVNAALGEVHVMTAWEALAVVLAMAYLLLAMKASVWCWAAAFTSTAIYTVLFWKVALLMESMLNIYYMGMALYGYWLWTQGGDKHQGVKVTTWPLKTHLKLIAATTLVSLGIGHGMATFTQASFPYLDAATTCFAVMTTYLVAKKVLENWLYWVVIDLVSIYLYLSKGLMLTSLLFVLYVGLAVVGYFLWRTALAESRLNLNGERAAKLLG”, the protein production result is “failed”.

As to “MTDQTRTSPLVNRLLKMISLCALGYLLIILAIIIPRGIQSVEQQKQELEEKLALSLSNSAAIALYVNNYDIASEVMDALLLHQEINAVKLASVDGIVFERTTIPSTYKEQNYWSDANRYRLDSPVDGNLIGYLMIHEDHQVIRQQAINQILDQIAVVLIQFLVTFIALIWIVRRLVGKPLTDLSQALSEVRPDHDRKVAVAAEDHHNEIGLVAKSINEFIDASHQALLRERELRQQIERWESYYRTIAEQDTLTGLKNRLGCEKFVLRKQRASTTMVLLLIDLDGFKQVNDTLGHAAGDEVLREIAKRFYALAQTHFSDFVVGRLGGDEFAIYIPLDEFVAESIERFAAQLIESSSEPIGLGQQSAQVGCSIGISHMNSLHIDLEKLLLQADKAMYWVKYRGKHGYHIYRMGEEILPLPSAKELKQDQFR”, the protein production entry is on record as “failed”. “MTDRAPADKYVVWVVLALSSVGVVAVYSAVTYLAEVRAGTEPVHFLLRHLARVGIALGAMGVVSLIDYRTLARYSRLALVGTLLLLVAVKVVGLFSGGADRWLQIGGVGFQPSEFARVALVLYVAVLLVQKQDYVKSFSRTFLPVLFWVGVTVGLIALDDLSTALVLLLGVLLMSFVGRVSVLQIGGLAVLGGVMAFGVLSTSPDRAARLEAYLGMDLFPNTDTEQVMDARGEQYQSRQARMAFAAGGFTGVGPGKSVQRDFLPEPYNDFIFAIIAEEYGIFGALALLTGFFVLLFRGYLRIARDAPDPLGLILAVGMTTLVVTYGFVHAGVASGLLPVTGLPMPFVSYGGTSLLANGIMIGVLLNISRHAGQRSAERV”: the protein production result is reported as “failed”. Regarding “MTDRDSLEPISRDELQARVAAGSVLVLDVRPAMEYAAGHLPGAVSIPLDELAERLDELPSGIDIVACCRGPYCVYAYDALELLRPNGFSARRLDGGFSEWLAADLPVVRTLEHHHHHH”, the protein production entry is reported as “not failed”.

Consider “MTDRLERKLAIAANQDKADLLIKNGQIVDVFQLETFEGDVVIADGEIVAISDPGTYEAHEEVDAKGAFIAPAFIDGHVHIESSMVAPEQFAKVVVPHGVTTVIADPHEIANVAGVQGVEYMLDASEGIPLDVKMMVPSCVPATPFEHSGARLTAEEVAELFRDPRIFGLGEVMDYPAVLTRDQEMMAKLKAAHSEGRIVDGHGAGLDSVALNAYTAAGIGNDHEAVTPEEAKARLQRGMYLLIREGTAAKDFDALMKAITPMNSRRALFVTDDKHLDELVEEGSIDHHVRKAIQIGVNPLQAIQMASLNAAECFKLAKKGAIAPGFTADLLFIEDLQSLAITHVFKNGTCVAKNGKLIVPIRETVQPPQRLLESVNMKLVTKEQLELSLQSDEEAHLIQIQPGSIVTKHIREKVAVKDGVFIPSVARDQLKLVVAERHHKRGTVGVGIVKGFGLTKGAIATTVAHDSHNIVAVGTNDEDLLAAIKELENIQGGMTIVKDGKVLVSLPLTIGGLMSDQSYDVVCEQIKSVDAAIGALGFVGDFNPFLTLSFLALPVIPEIKLTDQGLFDVTSFSFIDQQVYAEETN”, for which the protein production result is on record as “failed”.

Consider “MTDSTTELTPAAPVSWPDGKTCAVAFTFDVDAESPLLTTDPAFADRMGTMSHQAYGPLVGVPRLLGILDEFNVPGTFFVPGYTAHRHPEPIRSIARAGHEIAHHGYLHESLVGADEDTERKILTRGIEALEEVAGVHPVGYRAPMWEMNWHTPKLLAEFGFLYDSTLMDSDHPYELAVGDGSLVELPVSWALDDWQQYCFVPDFSGTGLIETPAKAIELWRAELNAMRDIGGAWVLTNHPFLSGRPGRAAALREFIAEVCAMDDVWVAGMSQIAEHVRAQKLTPRTLTRPELTPVAE”, for which the protein production entry was “not failed”. The entry for “MTDSTTLQQPAGANNLYGGLLSAQGLDLDQFETIHTQVQAWKTTAGTDVKFVEARELPIVDVILRFKAGTTQDTLYPGLAALTLSMLDEGSQAYTAAQQAEHLERLGAVMEKQVRLEHATLRLRSLSPPSLLDPALAVFTDLVAHPVFHPMALTRIKRQLLQNHASRERLPILRARSEVFRHLFNGHPYGNPLGSTAQGIEAITPEDLRAFHQRAYSASNLEMVVVGDLSPGQAQAISQQISQALPQGWSATELPAAPSAPSATIAVEQAGASSAILLALPMNVPANDPEFLALALASAVLGEGLESRLMVELRQRRGLTYGVHTHVLPLSAGGLFTVEWEVAPQHVQGTQALVETLLQAFIDEGPTQLELQLARKQLEGQLLRGIAQNRQLATLLTEVTHQRQPADHLDTYSARIAELTPADVRAVMQRRLALSHKVLVSVGPGVQQQPLPAPDQ” is “failed”; for “MTDTNTLLVTSLEEGIGKTAITLALATRAHDAGYDVGYMKPKGTRLRSAVGKTRDEDPMLARELLDLETDLHDMEPIVYSPTFIQEAIRGREDPDDLRERLQEGIETCSDGTDMLLVEGSSDLATGSIVDLTDIDIAELLDARVLLVTGYDTPSDTDEILSAAEAIGDRLDGVLFNGVTDATVDELADDVVPFLEGEGIPVHGILPRDRSLAGVTVADLARNLGADILTGDANTDVHVERFSVGAMSGSSALERFRRTRDAVVVTGGDRSEVQTAALEASGINALLLTGGFQPASAVIGQAAEKNVPVLSVQSDTRTTIDRVEEVLRTGQTRNEATVDRMRTLLDDGVDVESLLSVDLLEHHHHHH” it is “not failed”. The entry for “MTDTTQRIFLSYAGPDQAWAEWVGWQLQQAGHQVELDRWHWRTGDDFVQKMNLALGKADAVVALFSRHYFEPKRWTREEWSAAVALRGRLVPVAIELLNDDDIPALLAGTLRTDVHGLDEAAATSALLEAVHGPVPPTGPVDFPGAASADAPTAPDAQRPRLPSSVGLPEVWNVRRRNPDFSGRETVMGQLRTGLLSGRQAVVQALHGMGGIGKTQIALEYAHRFASQYDLVWWVDAEQADQLPVRYTELADRLGVAKSDAGSEPNARALLQHLRTRHRWLLVLDNAEHPDQIEPWLPEGPGHVLITSRNPDWHGIAHQSDLDVFTRTDSLAYLKGRISGMTTEHADLLAQDLGDLPLALAQASGVLRSGMTLDRYRRLLTTDTARLLQESDVRDHPAPLAATVGIAVTRLADDGHADAVALLRLGAFLGPEPIPTAWLETARPRLATIPGDPDDPMWLRNALQPLGRFGLARTDYDAFQIHRLTQAILRTQTGPDPVVAIRDDVTAVLAAVDPGDPRSPADWPAWASLTAHLTAPHVTTALAHQAALRATFSKAAHFLICSGLPRAAHDLSAALHQAWSTDLGPDHPDTLTCAQFLGHATVDLGDYAKGRLIIEDTLVRRRRVLGEDHPDTLRSANDTSTNLSLLGERVEARRMHEDVLARRRRVLGEDHPDTLTSAGNLATILNKSGEYVEARRMQEDVLARRRRVLGEDHPDTLTSAHNLAGLLNSLGEHAESRRMQEDVLARRGLVLGEDHPDTLSSASNLATSLNSLGEHAESRRMHEDVLARRGLVLGQDHPDTLSSANKLATSLNGLGEHAEARRMHEDVLARRGVVLGQDHPSTLASAGNLATTLNSLGEHVEAHRMQEDVLARCRRVLGQDHPDTLTSASNLARTLHTLRQYSEAAELLKEVRASYVRHFGAKHPKTELATRNLATVLIAMGKTHEAQQLTGRKSDKGKRRFGRKRR” is “failed”.
